We go through 1 protein from US20050265970.

Data set [1] concerns the target Gadd45β-derived peptide 8 (pure synthetic peptide, sequence in FIG. 37C).
Data set [2] deals with T1, His6-Gadd45β (full-length human Gadd45β purified from E. coli), O75293.
T1 chain: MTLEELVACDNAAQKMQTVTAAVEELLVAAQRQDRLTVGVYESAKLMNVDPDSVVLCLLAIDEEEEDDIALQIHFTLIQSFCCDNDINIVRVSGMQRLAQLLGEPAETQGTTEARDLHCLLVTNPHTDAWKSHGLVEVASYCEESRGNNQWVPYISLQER

For data set [3], the target named is T2, GST-Gadd45β (full-length murine Gadd45β directly fused to GST), P22339.
T2 chain: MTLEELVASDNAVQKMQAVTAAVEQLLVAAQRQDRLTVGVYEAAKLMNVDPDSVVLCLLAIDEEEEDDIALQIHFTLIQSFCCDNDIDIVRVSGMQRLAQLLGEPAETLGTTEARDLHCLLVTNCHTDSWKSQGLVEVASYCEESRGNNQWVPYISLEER

For data set [4], the target named is Gadd45β-derived peptide 2 (pure synthetic peptide, sequence in FIG. 37C).

B1: FLAG-MKK7 (FLAG-tagged JNKK2) immunoprecipitated from 293 cells (protein)
chain: MAASSLEQKLSRLEAKLKQENREARRRIDLNLDISPQRPRPTLQLPLANDGGSRSPSSESSPQHPTPPARPRHMLGLPSTLFTPRSMESIEIDQKLQEIMKQTGYLTIGGQRYQAEINDLENLGEMGSGTCGQVWKMRFRKTGHVIAVKQMRRSGNKEENKRILMDLDVVLKSHDCPYIVQCFGTFITNTDVFIAMELMGTCAEKLKKRMQGPIPERILGKMTVAIVKALYYLKEKHGVIHRDVKPSNILLDERGQIKLCDFGISGRLVDSKAKTRSAGCAAYMAPERIDPPDPTKPDYDIRADVWSLGISLVELATGQFPYKNCKTDFEVLTKVLQEEPPLLPGHMGFSGDFQSFVKDCLTKDHRKRPKYNKLLEHSFIKRYETLEVDVASWFKDVMAKTESPRTSGVLSQPHLPFFR
Turning to B1, the “MKK7 kinase assay with GST-JNK1 substrate” value in data set [1] was “the amino acid regions contained in the overlapping, Gadd45β-derived peptides 2 and 8 are sufficient to recapitulate most of the inhibitory activity of Gadd45β on MKK7”; in data set [4], “the amino acid regions contained in the overlapping, Gadd45β-derived peptides 2 and 8 are sufficient to recapitulate most of the inhibitory activity of Gadd45β on MKK7”. Also, the “GST-JNK1 phosphorylation by MKK7 (kinase assay)” value is recorded as “Both Gadd45β polypeptides, but neither GST nor His6-EF3, blocked GST-JNK1 phosphorylation by MKK7, in a dose-dependent manner” in data set [2] and “Both Gadd45β polypeptides, but neither GST nor His6-EF3, blocked GST-JNK1 phosphorylation by MKK7, in a dose-dependent manner” in data set [3]. The “JNKK2 kinase activity in vitro (phosphorylation of GST-JNK1)” value is “both GST-Gadd45β and His6-Gadd45β effectively suppressed JNKK2 activity, in vitro, even at the lowest concentrations that were tested” in data set [2]; “both GST-Gadd45β and His6-Gadd45β effectively suppressed JNKK2 activity, in vitro, even at the lowest concentrations that were tested” in data set [3].
